Target: T1, 6xHis–Rab35^WT full-length (human, UniProt Q15286 1-201)
T1 construct: Rab35 GTPase, full-length, wild type; Exchanged with 1 mM GDP or 200 μM GTPγS before the pull-down; The species is not repeated for the His construct; also called 6xHis-tagged Rab35^WT; source: E. coli BL21 pLysS, purified (Ni-NTA Magnetic Agarose Beads)
Test: pull-down; GST–PODXL tail or GST on glutathione Sepharose 4B beads incubated with 6xHis-Rab proteins exchanged with 1 mM GDP or 200 μM GTPγS; 25 mM Tris pH 7.5, 50 mM NaCl, 10 mM MgCl2, 0.1% Triton X-100, 0.2% BSA; western blot with anti-6xHis
Conditions: both partners purified

T1 sequence (Q15286 whole entry): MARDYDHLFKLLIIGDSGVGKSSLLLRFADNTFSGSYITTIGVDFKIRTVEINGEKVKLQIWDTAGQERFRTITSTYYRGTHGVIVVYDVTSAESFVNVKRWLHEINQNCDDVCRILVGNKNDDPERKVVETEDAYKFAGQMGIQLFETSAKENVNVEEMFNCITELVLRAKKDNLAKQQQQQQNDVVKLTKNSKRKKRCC

B1: GST–PODXL WT (aa 476–551) (domain or fragment, rabbit, UniProt Q28645 476-551, looked up)
chain: CHQRLSHRKDQQRLTEELQTVENGYHDNPTLEVMETSAEMQEKKVVNLNGELGDSWIVPLDNLTKDDLDEEEDTHL
notes: The species is not repeated for the GST construct; source: E. coli BL21 pLysS, purified (glutathione Sepharose 4B)
  binding result: binds

Reference: article PMC4822036, “Rab35 GTPase couples cell division with initiation of epithelial apico-basal polarity and lumen opening” (Nature Communications, 2016)
